Source: US20240010751A1 (EXELIXIS, published 2024)
Residue numbers refer to the chain shown, from its start.

B1: C40 x P24 bispecific antibody in a BC44 format (bispecific antibody)
chain 1: not shown
chain 2: EVQLVESGGGLVQPGGSLRLSCAASGFTFSYYYIHWVRQAPGKGLEWVAWIDPYGHSTTYADSVKGRFTISADTSKNTAYLQMNSLRAEDTAVYYCARGGRGAMDYWGQGTLVTVSSASPREPQVYTLPPCRDELTKNQVSLTCLVKGFYPSDIAVEWESNGQPENNYKTTPPVLDSDGSFFLYSKLTVDKSRWQQGNVFSCSVMHEALHNHYTQKSLSLSPGK
chain 3: DIQMTQSPSSLSASVGDRVTITCRASQSVSSAVAWYQQKPGKAPKLLIYSASSLYSGVPSRFSGSRSGTDFTLTISSLQPEDFATYYCQQVSYSPYTFGQGTKVEIKRTVAAPSVFIFPPSDEQLKSGTASVVCLLNNFYPREAKVQWKVDNALQSGNSQESVTEQDSKDSTYSLSSTLTLSKADYEKHKVYACEVTHQGLSSPVTKSFNRGECDKTHTCPPCPAPELLGGPSVFLFPPKPKDTLMISRTPEVTCVVVDVSHEDPEVKFNWYVDGVEVHNAKTKPREEQYNSTYRVVSVLTVLHQDWLNGKEYKCKVSNKALPAPIEKTISKAKGQPREPQVCTLPPSREEMTKNQVSLSCAVKGFYPSDIAVEWESNGQPENNYKTTPPVLDSDGSFFLVSKLTVDKSRWQQGNVFSCSVMHEALHNHYTQKSLSLSPGK
chain 4: EVQLVESGGGLVQPGGSLRLSCAASGFTFDQYYIHWVRQAPGKGLEWVAEIYPAGSYTYYADSVKGRFTISADTSKNTAYLQMNSLRAEDTAVYYCARGPYSVRYALDYWGQGTLVTVSSASTKGPSVFPLAPSSKSTSGGTAALGCLVKDYFPEPVTVSWNSGALTSGVHTFPAVLQSSGLYSLSSVVTVPSSSLGTQTYICNVNHKPSNTKVDKKVEPPKSC
notes: B-Body of four polypeptide chains, BC44 format; CD47 arm from C40, PD-L1 arm from P24; also called C40 × P24
B2: C56 x P22 bispecific antibody in a BC44 format (bispecific antibody)
chain 1: not shown
chain 2: B1 chain 2 with S30T, W50F, G55S, H56G, T59E, R101L, G102Y, M104L
chain 3: B1 chain 3 with V91Y, S92Y, Y93T
chain 4: EVQLVESGGGLVQPGGSLRLSCAASGFTFSSYYIHWVRQAPGKGLEWVAWITSHGYSTKYADSVKGRFTISADTSKNTAYLQMNSLRAEDTAVYYCARDSVIYGLDYWGQGTLVTVSSASTKGPSVFPLAPSSKSTSGGTAALGCLVKDYFPEPVTVSWNSGALTSGVHTFPAVLQSSGLYSLSSVVTVPSSSLGTQTYICNVNHKPSNTKVDKKVEPPKSC
notes: B-Body of four polypeptide chains, BC44 format; CD47 arm from C56, PD-L1 arm from P22; also called C56 × P22
B3: C59 x P31.2 bispecific antibody in a BC44 format (bispecific antibody)
chain 1: not shown
chain 2: B1 chain 2 with S30T, Y31S, W50Y, P53S, Y54K, G55H, H56G, S57T, T59Q, G102S
chain 3: B1 chain 3 with V91F, S92G, Y93A, S94E, Y96I
chain 4: EVQLVESGGGLVQPGGSLRLSCAASGFTFSSYYIHWVRQAPGKGLEWVATISSGGGFTYYADSVKGRFTISADTSKNTAYLQMNSLRAEDTAVYYCARGYTLTPVLDYWGQGTLVTVSSASTKGPSVFPLAPSSKSTSGGTAALGCLVKDYFPEPVTVSWNSGALTSGVHTFPAVLQSSGLYSLSSVVTVPSSSLGTQTYICNVNHKPSNTKVDKKVEPPKSC
notes: B-Body of four polypeptide chains, BC44 format; CD47 arm from C59, PD-L1 arm from P31.2; also called C59 × P31.2
B4: C40 x P24 (silent Fc) bispecific antibody in a BC44 format (bispecific antibody)
chain 1: not shown
chain 2: B1 chain 2
chain 3: B1 chain 3 with L228A, L229A, P323K
chain 4: B1 chain 4
B5: antibody designated P24 (antibody, V domains shown)
VH: EVQLVESGGGLVQPGGSLRLSCAASGFTFDQYYIHWVRQAPGKGLEWVAEIYPAGSYTYYADSVKGRFTISADTSKNTAYLQMNSLRAEDTAVYYCARGPYSVRYALDYWGQGTLVT
VL: DIQMTQSPSSLSASVGDRVTITCRASQSVSSAVAWYQQKPGKAPKLLIYSASSLYSGVPSRFSGSRSGTDFTLTISSLQPEDFATYYCQQVSYSPYTFGQGTKVEIK
notes: Anti-PD-L1

molecular target: T1, CD47 and PD-L1 together on the surface of the same cells (CD47 PD-L1 TCA CHO cells); PD-L1 MDA-MB-231 cells; … (Homo sapiens (Human), UniProt Q08722 19-323; Q9NZQ7 19-290); assay: flow cytometry on Jeko-PD-L1 cells (both targets on the cells); BC44 format

Question: How did the EC50 turn out when B1 was run?
Answer: Its EC50 is 0.703 nM.

Question: With B2 as the binder, how does the EC50 read?
Answer: Its EC50 is 0.218 nM.

Question: With B3 as the binder, how does the EC50 read?
Answer: The EC50 was 0.256 nM.

molecular target: T2, CD47 on cells (target cells of the assays) (Homo sapiens (Human), UniProt Q08722 19-323); assay: cell-based or functional assay

Question: B1 was tested. Which “IC50, CD47/SIRPα Inhibition Assay, JeKo-PD-L1 Cells” value did it give?
Answer: The value was 1.26 nM.

Question: For B4, which “IC50, CD47/SIRPα Inhibition Assay, JeKo-PD-L1 Cells” value is on record?
Answer: The value was 0.26 nM.

Question: For B2, which “IC50, CD47/SIRPα Inhibition Assay, JeKo-PD-L1 Cells” value is on record?
Answer: Its value is 1.2 nM.

molecular target: T3, biotinylated human PD-L1 (extracellular domain, Acro Biosystems) (human, UniProt Q9NZQ7 19-238, biotinylated); assay: Octet in-tandem cross-competition, 100 nM biotinylated antigen on a streptavidin sensor
T3 construct: Bought protein; also called biotinylated antigen; biotinylated human PD-L1-His Avitag; not shown: His Avitag or His tag
T3 sequence (Q9NZQ7 19-238): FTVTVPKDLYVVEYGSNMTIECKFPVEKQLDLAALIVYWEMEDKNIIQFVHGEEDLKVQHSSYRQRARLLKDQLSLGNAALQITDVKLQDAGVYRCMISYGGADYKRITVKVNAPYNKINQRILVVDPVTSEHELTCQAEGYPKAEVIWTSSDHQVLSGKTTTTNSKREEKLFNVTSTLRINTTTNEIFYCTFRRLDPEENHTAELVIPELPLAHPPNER

Question: Does B5 bind?
Answer: Result: binds

molecular target: T1, CD47 and PD-L1 together on the surface …; assay: flow cytometry on PD-L1 MDA-MB-231 cells (both targets on the cells); BC44 format

Question: Which EC50 does the source give for B1 here?
Answer: Its EC50 is 3.1 nM.

Question: For B2, which EC50 is on record?
Answer: The EC50 was 1.2 nM.

Question: Which EC50 does the source give for B3 here?
Answer: Its EC50 is 2.5 nM.

molecular target: T2, CD47 on cells (target cells of the …); assay: cell-based or functional assay; remark: another data set of the same source

Question: B1 was tested. Which “IC50, CD47/SIRPα Inhibition Assay in PD-L1 MDA-MB-231 Cells” value did it give?
Answer: Its value is 0.112 nM.

Question: B2 was tested. Which “IC50, CD47/SIRPα Inhibition Assay in PD-L1 MDA-MB-231 Cells” value did it give?
Answer: Its value is 0.218 nM.

Question: How did the “IC50, CD47/SIRPα Inhibition Assay in PD-L1 MDA-MB-231 Cells” value turn out when B3 was run?
Answer: Its value is 0.266 nM.

molecular target: PD-L1 on cells (target cells of the assays) (Homo sapiens (Human), UniProt Q9NZQ7 19-290); assay: cell-based or functional assay
Sequence (Q9NZQ7 19-290 limits assumed): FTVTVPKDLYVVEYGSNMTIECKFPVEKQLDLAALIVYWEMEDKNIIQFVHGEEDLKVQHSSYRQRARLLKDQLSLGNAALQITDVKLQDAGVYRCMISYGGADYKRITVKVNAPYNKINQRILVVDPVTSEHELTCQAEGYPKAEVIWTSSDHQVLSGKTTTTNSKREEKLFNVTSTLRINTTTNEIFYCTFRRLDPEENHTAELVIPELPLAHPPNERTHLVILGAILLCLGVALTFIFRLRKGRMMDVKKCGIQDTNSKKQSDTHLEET

Question: Which results are given for B1?
Answer: IC50, PD-1/PD-L1 Inhibition Assay in Jeko-PD-L1 Cells: 0.275 nM; IC50, PD-1/PD-L1 Inhibition Assay in MDA-MB-231 PD-L1 Cells: 1.3 nM

Question: What does the source list for B4?
Answer: IC50, PD-1/PD-L1 Inhibition Assay in Jeko-PD-L1 Cells: 0.274 nM; IC50, PD-1/PD-L1 Inhibition Assay in MDA-MB-231 PD-L1 Cells: 14.7 nM

Question: Which results are given for B2?
Answer: IC50, PD-1/PD-L1 Inhibition Assay in Jeko-PD-L1 Cells: 1.99 nM; IC50, PD-1/PD-L1 Inhibition Assay in MDA-MB-231 PD-L1 Cells: 3 nM

Question: For B3, which “IC50, PD-1/PD-L1 Inhibition Assay in Jeko-PD-L1 Cells” value is on record?
Answer: Its value is 0.0268 nM.

Question: And the “IC50, PD-1/PD-L1 Inhibition Assay in MDA-MB-231 PD-L1 Cells” value?
Answer: The value was 3.7 nM.
